Test results reported in PMC6031460 (Structure (London, England : 1993), 2018).
Blank lines part the entries; values can stand above or below the molecule they belong to.

Assays:
[1] = biological target: Mis16-Eic1 heterodimer (S. pombe) (UniProt O94244); test: AUC
[2] = biological target: Mis18 C-terminal helical domain (Mis18C) (S. pombe) (UniProt Q9P802); test: AUC
[3] = biological target: S. pombe Mis16 (S. pombe) (UniProt O94244); test: ITC
AUC = biological target: the molecule itself; test: AUC
[4] = biological target: Mis16-Eic1 heterodimer (S. pombe) (UniProt O94244); test: AUC; remark: listed apart in the source
S. pombe Mis16 = biological target: T1, S. pombe Mis16 (S. pombe, UniProt O94244 1-430); test: AUC
T1 sequence (looked up): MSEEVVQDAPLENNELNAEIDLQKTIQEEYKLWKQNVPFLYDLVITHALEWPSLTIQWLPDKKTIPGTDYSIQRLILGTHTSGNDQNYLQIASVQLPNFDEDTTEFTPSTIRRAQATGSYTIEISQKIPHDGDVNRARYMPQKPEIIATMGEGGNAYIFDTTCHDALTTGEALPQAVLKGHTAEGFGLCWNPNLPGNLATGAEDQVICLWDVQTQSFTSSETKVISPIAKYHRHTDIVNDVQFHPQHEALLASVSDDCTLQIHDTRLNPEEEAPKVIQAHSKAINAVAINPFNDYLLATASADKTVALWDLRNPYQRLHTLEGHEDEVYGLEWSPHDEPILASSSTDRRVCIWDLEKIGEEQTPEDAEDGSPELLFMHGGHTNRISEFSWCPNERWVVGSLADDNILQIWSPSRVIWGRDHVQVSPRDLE

stoichiometry N (Mis18C per Mis16-Eic1 heterodimer) [1]: 2
stoichiometry N [2]: 2
Molecule: Mis18 C-terminal helical domain (Mis18C) (from UniProt Q9P802 1-194) (domain or fragment)

stoichiometry N (MBP-Mis18C per Mis16-Eic1 heterodimer) [1]: 2
Molecule: Mis18C fused to maltose binding protein (MBP-Mis18C) (domain or fragment)

Kd [3]: 20.8 nM
Molecule: Trx-Eic1-CT (wild-type) (from UniProt O42995 91-112) (domain or fragment)

stoichiometry N (Mis18 per Mis16-Eic1 heterodimer) [4]: 2
B1: S. pombe Mis18 (natural protein, UniProt Q9P802 1-194, looked up)
chain: MSQTETSHSGYIDFKKESQPSVFQCKKCFQIVGDSNAWVISHREYLSFTLSDAVENSVRVEDTFKRSDDGLCVYSELSCTRCNEVIGKVYNSTPIYLDDIRDMYTFSMDKLQAYQLGNKTVNPEGLTRYQVDLEMREDIIKLKSFCLSLYEKFELHDETLRSVKETISSLKKPKIEGKEGKKEKARTYSKRTRK
stoichiometry N (AUC): 4

stoichiometry N (S. pombe Mis16): 1 Eic1 per Mis16
B2: S. pombe Eic1 (natural protein, UniProt O42995 1-112, looked up)
chain: MDLMPLEKARAIEIAFDNVFHNTKIPDNLQQFDAILKRLERRRFIPTENQKPRVYETELLVLRFREFGVKDNHNHPINLHSLRSKSLIRAQGKKLDLHNRVFLRRNVRAVKM
